Data set [1] deals with T1, SaSsbA (Staphylococcus aureus, UniProt A0A0D1JHQ1).
T1 construct: gene ssb; tetramer in crystal
T1 sequence (A0A0D1JHQ1 1-167): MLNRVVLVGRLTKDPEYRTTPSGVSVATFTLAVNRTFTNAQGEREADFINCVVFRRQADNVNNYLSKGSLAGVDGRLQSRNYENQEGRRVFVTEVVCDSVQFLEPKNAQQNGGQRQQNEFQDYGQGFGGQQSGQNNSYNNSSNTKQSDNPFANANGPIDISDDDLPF
The data set is described as follows: EMSA inhibition of ssDNA binding. (Mobility shift assays separate free from complexed probe on a gel.)

For data set [2], the target named is T2, SaSsbA (Staphylococcus aureus) (UniProt A0A0D1JHQ1).
T2 sequence: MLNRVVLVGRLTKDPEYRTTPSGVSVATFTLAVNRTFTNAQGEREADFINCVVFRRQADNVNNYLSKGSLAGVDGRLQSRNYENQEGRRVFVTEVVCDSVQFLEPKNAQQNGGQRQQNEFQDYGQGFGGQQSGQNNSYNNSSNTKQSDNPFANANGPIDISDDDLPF
The data set is described as follows: EMSA. The conditions noted are these: EMSA: 40 mM Tris-HCl pH 7.5, 50 mM NaCl, 37 C, 60 min, 30 fmol/uL DNA (30 nM); 8% native PAGE in TBE.

Data set [3] addresses T3, SaSsbA (Staphylococcus aureus, UniProt A0A0D1JHQ1 1-167). Kind of data set: EMSA; EMSA: 40 mM Tris-HCl pH 7.5, 50 mM NaCl, 37 C, 60 min, 30 fmol/uL DNA (30 nM); 8% native PAGE in TBE. The settings on record: protein: recombinant; chain copies: 4; label: 5' biotin; single strand.
In data set [4] the target is T3, SaSsbA. Kind of data set: EMSA; no shift up to 10 uM protein; EMSA: 40 mM Tris-HCl pH 7.5, 50 mM NaCl, 37 C, 60 min, 30 fmol/uL DNA (30 nM); 8% native PAGE in TBE. The settings on record: protein: recombinant; chain copies: 4; label: biotin on PS4 (strand 1); blunt.

Read-outs that look alike come from different tables or passages of the source. Bounds are passed on as bounds.

On to `O=C1c2c(O)cc(O)cc2O[C@H](c2ccc(O)c(O)c2)[C@H]1O` [dihydroquercetin], for which the IC50 on SaSsbA [1] (read-out: no inhibition at 1000 μM) was more than 1000 µM.

In data set [2], “CCCGAATTCGGATAGCTCGGTACCCTTTTTTTTTTTTTTTTTTTTTTTTT / GGGTACCGAGCTATCCGAATTCGGG [PS4/PS3-3'-dT25]” gave a K half of 940 nM. As to `O=C1c2c(O)cc(O)cc2O[C@H](c2ccc(O)cc2)[C@H]1O` [dihydrokaempferol], the IC50 at SaSsbA [1] (read-out: IC50) stood at 750 ± 62 µM. On to `O=c1c(O)c(-c2cc(O)c(O)c(O)c2)oc2cc(O)cc(O)c12` [myricetin], for which, at SaSsbA [1] (read-out: no inhibition at 300 μM), the IC50 was more than 300 µM. With TTTTTTTTTTTTTTTTTTTTTTTTTTTTTT (ssDNA) [dT30], the “apparent K (half saturation)” value in the data set with SaSsbA [3] was 460 ± 30 nM. For TTTTTTTTTTTTTTTTTTTT (ssDNA) [dT20], the “apparent K (half saturation)” value with SaSsbA [3] is 1770 ± 110 nM.

B1: dT59 (ssDNA)
DNA: TTTTTTTTTTTTTTTTTTTTTTTTTTTTTTTTTTTTTTTTTTTTTTTTTTTTTTTTTTT
Turning to B1, the “apparent K (half saturation)” value in the data set with SaSsbA [3] was 240 ± 10 nM. The same measure, in the same setting: as for TTTTTTTTTTTTTTTTTTTTTTTTTTTTTTTTTTT (ssDNA) [dT35], the figure is 360 ± 20 nM.

B2: PS4/PS3 (dsDNA)
DNA 1: GGGTACCGAGCTATCCGAATTCGGG
DNA 2: CCCGAATTCGGATAGCTCGGTACCC
In the case of B2, in the data set with SaSsbA [4], the binding result is listed as “no binding”.

Values taken from publication PMC9692666, “The Inhibitory Effects and Cytotoxic Activities of the Stem Extract of Sarracenia purpurea against Melanoma Cells and the SsbA Protein” (Plants, 2022).
